Data set [1] concerns HeLa Kyoto. Briefly: solubility in G1/S (NP-40 vs SDS abundance) (log2 ratio); higher = more soluble. The settings on record: cell cycle stage: G1/S.
The test system of data set [2] is HeLa Kyoto. Briefly: solubility change mitosis vs G1/S (difference of NP-40 vs SDS log2 ratios) (log2 ratio difference); higher = more soluble in mitosis.
The test system of data set [3] is HeLa Kyoto. Briefly: thermal stability score vs G1/S (z-score of summed log2 fold changes over temperatures); higher = more thermally stable than in G1/S.
Data set [4] concerns HeLa Kyoto. Briefly: melting temperature (median over replicates), in situ; higher = more thermally stable.
The mark [5] stands for this setting: cell cycle stage: early G1 (4.5 h after nocodazole release).

Here are results for six sequences from the supplement of paper PMC5998384.
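For melting temperature (median over replicates), in situ in this document: HeLa Kyoto cells synchronized by double thymidine or nocodazole block, proteins quantified by TMT10plex mass spectrometry, three independent biological replicates.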
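For solubility change mitosis vs G1/S (difference of NP-40 vs SDS log2 ratios) in this document: synchronized HeLa Kyoto cells (double thymidine block for G1/S, nocodazole release for mitosis), protein amounts in NP-40 versus SDS lysates quantified by mass spectrometry, three biological replicates.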
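For solubility in G1/S (NP-40 vs SDS abundance) in this document: HeLa Kyoto cells arrested at G1/S by double thymidine block, proteins quantified by TMT10plex mass spectrometry in mild NP-40 versus SDS extracts, three biological replicates.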
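For thermal stability score vs G1/S (z-score of summed log2 fold changes over temperatures) in this document: synchronized HeLa Kyoto cells, proteins quantified by TMT10plex mass spectrometry, three biological replicates, mitosis taken 0.5 h after nocodazole release, G1/S directly after double thymidine block.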

Regarding “MASNVTNKTDPRSMNSRVFIGNLNTLVVKKSDVEAIFSKYGKIVGCSVHKGFAFVQYVNERNARAAVAGEDGRMIAGQVLDINLAAEPKVNRGKAGVKRSAAEMYGSVTEHPSPSPLLSSSFDLDYDFQRDYYDRMYSYPARVPPPPPIARAVVPSKRQRVSGNTSRRGKSGFNSKSGQRGSSKSGKLKGDDLQAIKKELTQIKQKVDSLLENLEKIEKEQSKQAVEMKNDKSEEEQSSSSVKKDETNVKMESEGGADDSAEEGDLLDDDDNEDRGDDQLELIKDDEKEAEEGEDDRDSANGEDDS [HNRNPC]”, the “solubility in G1/S (log2)” value in the data set with HeLa Kyoto [1] was -0.0638. For the same sequence, the “solubility change mitosis (log2)” value in the data set on HeLa Kyoto [2] came to 0.36. The thermal stability score in the data set on HeLa Kyoto [3] (setting [5]) was 7.33; in the data set on HeLa Kyoto [3] (cell cycle stage: mitosis), 16.5. Also, the melting temperature in the data set on HeLa Kyoto [4] (cell cycle stage: G1/S) amounted to 47.4 °C; with HeLa Kyoto [4] (cell cycle stage: mitosis), 49.5 °C.

As for “MASPPHQQLLHHHSTEVSCDSSGDSNSVRVKINPKQLSSNSHPKHCKYSISSSCSSSGDSGGVPRRVGGGGRLRRQKKLPQLFERASSRWWDPKFDSVNLEEACLERCFPQTQRRFRYALFYIGFACLLWSIYFAVHMRSRLIVMVAPALCFLLVCVGFFLFTFTKLYARHYAWTSLALTLLVFALTLAAQFQVLTPVSGRGDSSNLTATARPTDTCLSQVGSFSMCIEVLFLLYTVMHLPLYLSLCLGVAYSVLFETFGYHFRDEACFPSPGAGALHWELLSRGLLHGCIHAIGVHLFVMSQVRSRSTFLKVGQSIMHGKDLEVEKALKERMIHSVMPRIIADDLMKQGDEESENSVKRHATSSPKNRKKKSSIQKAPIAFRPFKMQQIEEVSILFADIVGFTKMSANKSAHALVGLLNDLFGRFDRLCEETKCEKISTLGDCYYCVAGCPEPRADHAYCCIEMGLGMIKAIEQFCQEKKEMVNMRVGVHTGTVLCGILGMRRFKFDVWSNDVNLANLMEQLGVAGKVHISEATAKYLDDRYEMEDGKVIERLGQSVVADQLKGLKTYLISGQRAKESRCSCAEALLSGFEVIDGSQVSSGPRGQGTASSGNVSDLAQTVKTFDNLKTCPSCGITFAPKSEAGAEGGAPQNGCQDEHKNSTKASGGPNPKTQNGLLSPPQEEKLTNSQTSLCEILQEKGRWAGVSLDQSALLPLRFKNIREKTDAHFVDVIKEDSLMKDYFFKPPINQFSLNFLDQELERSYRTSYQEEVIKNSPVKTFASPTFSSLLDVFLSTTVFLTLSTTCFLKYEAATVPPPPAALAVFSAALLLEVLSLAVSIRMVFFLEDVMACTKRLLEWIAGWLPRHCIGAILVSLPALAVYSHVTSEYETNIHFPVFTGSAALIAVVHYCNFCQLSSWMRSSLATVVGAGPLLLLYVSLCPDSSVLTSPLDAVQNFSSERNPCNSSVPRDLRRPASLIGQEVVLVFFLLLLLVWFLNREFEVSYRLHYHGDVEADLHRTKIQSMRDQADWLLRNIIPYHVAEQLKVSQTYSKNHDSGGVIFASIVNFSEFYEENYEGGKECYRVLNELIGDFDELLSKPDYSSIEKIKTIGATYMAASGLNTAQAQDGSHPQEHLQILFEFAKEMMRVVDDFNNNMLWFNFKLRVGFNHGPLTAGVIGTTKLLYDIWGDTVNIASRMDTTGVECRIQVSEESYRVLSKMGYDFDYRGTVNVKGKGQMKTYLYPKCTDHRVIPQHQLSISPDIRVQVDGSIGRSPTDEIANLVPSVQYVDKTSLGSDSSTQAKDAHLSPKRPWKEPVKAEERGRFGKAIEKDDCDETGIEEANELTKLNVSKSV [ADCY9]”, the “solubility in G1/S (log2)” value in the data set with HeLa Kyoto [1] was -0.0462. The “solubility change mitosis (log2)” value in the data set with HeLa Kyoto [2] is -0.172. Further, the thermal stability score in the data set on HeLa Kyoto [3] (setting [5]) is 0.368; in the data set with HeLa Kyoto [3] (cell cycle stage: mitosis), -0.65. The melting temperature turned out to be 52.3 °C with HeLa Kyoto [4] (cell cycle stage: G1/S) and 52 °C with HeLa Kyoto [4] (cell cycle stage: mitosis).

In the case of “MASRGATRPNGPNTGNKICQFKLVLLGESAVGKSSLVLRFVKGQFHEFQESTIGAAFLTQTVCLDDTTVKFEIWDTAGQERYHSLAPMYYRGAQAAIVVYDITNEESFARAKNWVKELQRQASPNIVIALSGNKADLANKRAVDFQEAQSYADDNSLLFMETSAKTSMNVNEIFMAIAKKLPKNEPQNPGANSARGRGVDLTEPTQPTRNQCCSN [RAB5A]”, in the data set with HeLa Kyoto [1], the “solubility in G1/S (log2)” value is 0.00572. Also, in the data set with HeLa Kyoto [2], the “solubility change mitosis (log2)” value was determined as 0.0351. For the same sequence, the results for the thermal stability score in the data set on HeLa Kyoto [3] (setting [5]) and with HeLa Kyoto [3] (cell cycle stage: mitosis) were -1.4 and -3.38, respectively. Further, the melting temperature came to 57.3 °C in the data set on HeLa Kyoto [4] (cell cycle stage: G1/S) and 56.4 °C in the data set on HeLa Kyoto [4] (cell cycle stage: mitosis).

For “MASSAEGDEGTVVALAGVLQSGFQELSLNKLATSLGASEQALRLIISIFLGYPFALFYRHYLFYKETYLIHLFHTFTGLSIAYFNFGNQLYHSLLCIVLQFLILRLMGRTITAVLTTFCFQMAYLLAGYYYTATGNYDIKWTMPHCVLTLKLIGLAVDYFDGGKDQNSLSSEQQKYAIRGVPSLLEVAGFSYFYGAFLVGPQFSMNHYMKLVQGELIDIPGKIPNSIIPALKRLSLGLFYLVGYTLLSPHITEDYLLTEDYDNHPFWFRCMYMLIWGKFVLYKYVTCWLVTEGVCILTGLGFNGFEEKGKAKWDACANMKVWLFETNPRFTGTIASFNINTNAWVARYIFKRLKFLGNKELSQGLSLLFLALWHGLHSGYLVCFQMEFLIVIVERQAARLIQESPTLSKLAAITVLQPFYYLVQQTIHWLFMGYSMTAFCLFTWDKWLKVYKSIYFLGHIFFLSLLFILPYIHKAMVPRKEKLKKME [LPCAT3]”, in the data set on HeLa Kyoto [1], the “solubility in G1/S (log2)” value is -0.0534. In the data set on HeLa Kyoto [2], the “solubility change mitosis (log2)” value is -0.275. In addition, the thermal stability score with HeLa Kyoto [3] (setting [5]) is 0.0481; in the data set on HeLa Kyoto [3] (cell cycle stage: mitosis), -0.776. The melting temperature in the data set with HeLa Kyoto [4] (cell cycle stage: mitosis) was determined as 55.7 °C.

On to “MASSCAVQVKLELGHRAQVRKKPTVEGFTHDWMVFVRGPEHSNIQHFVEKVVFHLHESFPRPKRVCKDPPYKVEESGYAGFILPIEVYFKNKEEPRKVRFDYDLFLHLEGHPPVNHLRCEKLTFNNPTEDFRRKLLKAGGDPNRSIHTSSSSSSSSSSSSSSSSSSSSSSSSSSSSSSSSSSSSSSSSSSTSFSKPHKLMKEHKEKPSKDSREHKSAFKEPSRDHNKSSKESSKKPKENKPLKEEKIVPKMAFKEPKPMSKEPKPDSNLLTITSGQDKKAPSKRPPISDSEELSAKKRKKSSSEALFKSFSSAPPLILTCSADKKQIKDKSHVKMGKVKIESETSEKKKSTLPPFDDIVDPNDSDVEENISSKSDSEQPSPASSSSSSSSSFTPSQTRQQGPLRSIMKDLHSDDNEEESDEVEDNDNDSEMERPVNRGGSRSRRVSLSDGSDSESSSASSPLHHEPPPPLLKTNNNQILEVKSPIKQSKSDKQIKNGECDKAYLDELVELHRRLMTLRERHILQQIVNLIEETGHFHITNTTFDFDLCSLDKTTVRKLQSYLETSGTS [MLLT3]”, for which, in the data set with HeLa Kyoto [1], the “solubility in G1/S (log2)” value is -0.355. The “solubility change mitosis (log2)” value with HeLa Kyoto [2] came to 0.411. The results for the thermal stability score in the data set with HeLa Kyoto [3] (setting [5]) and with HeLa Kyoto [3] (cell cycle stage: mitosis) were -0.0552 and 0.557, respectively. Also, the melting temperature in the data set on HeLa Kyoto [4] (cell cycle stage: G1/S) was 48.5 °C; with HeLa Kyoto [4] (cell cycle stage: mitosis), 50.5 °C.

As for “MASSDIQVKELEKRASGQAFELILSPRSKESVPEFPLSPPKKKDLSLEEIQKKLEAAEERRKSHEAEVLKQLAEKREHEKEVLQKAIEENNNFSKMAEEKLTHKMEANKENREAQMAAKLERLREKDKHIEEVRKNKESKDPADETEAD [STMN1]”, the “solubility in G1/S (log2)” value with HeLa Kyoto [1] amounted to 0.635. Besides, the “solubility change mitosis (log2)” value in the data set with HeLa Kyoto [2] was 0.208. Also, the thermal stability score in the data set on HeLa Kyoto [3] (setting [5]) was -6.5; in the data set with HeLa Kyoto [3] (cell cycle stage: mitosis) it was -5.49. The melting temperature was determined as 56.7 °C in the data set on HeLa Kyoto [4] (cell cycle stage: G1/S) and 64.1 °C with HeLa Kyoto [4] (cell cycle stage: mitosis).
